The target of assay [1] is T1, 人EphA2 (expressed on cells) (human, UniProt P29317 24-976).
T1 construct: whole, on cells; also called human EphA2; EphA2 on PC3, HUVEC and other human cell lines
In words: flow cytometry on cell lines, 1 μg antibody, PE goat anti-human IgG.

Assay [2] addresses T2, 小鼠EphA2 (expressed on cells) (mouse, UniProt Q03145 26-977).
T2 construct: whole, on cells; also called mouse EphA2; EphA2 on CT26, 4T1
The assay is described as above.

T1 sequence (P29317 24-976): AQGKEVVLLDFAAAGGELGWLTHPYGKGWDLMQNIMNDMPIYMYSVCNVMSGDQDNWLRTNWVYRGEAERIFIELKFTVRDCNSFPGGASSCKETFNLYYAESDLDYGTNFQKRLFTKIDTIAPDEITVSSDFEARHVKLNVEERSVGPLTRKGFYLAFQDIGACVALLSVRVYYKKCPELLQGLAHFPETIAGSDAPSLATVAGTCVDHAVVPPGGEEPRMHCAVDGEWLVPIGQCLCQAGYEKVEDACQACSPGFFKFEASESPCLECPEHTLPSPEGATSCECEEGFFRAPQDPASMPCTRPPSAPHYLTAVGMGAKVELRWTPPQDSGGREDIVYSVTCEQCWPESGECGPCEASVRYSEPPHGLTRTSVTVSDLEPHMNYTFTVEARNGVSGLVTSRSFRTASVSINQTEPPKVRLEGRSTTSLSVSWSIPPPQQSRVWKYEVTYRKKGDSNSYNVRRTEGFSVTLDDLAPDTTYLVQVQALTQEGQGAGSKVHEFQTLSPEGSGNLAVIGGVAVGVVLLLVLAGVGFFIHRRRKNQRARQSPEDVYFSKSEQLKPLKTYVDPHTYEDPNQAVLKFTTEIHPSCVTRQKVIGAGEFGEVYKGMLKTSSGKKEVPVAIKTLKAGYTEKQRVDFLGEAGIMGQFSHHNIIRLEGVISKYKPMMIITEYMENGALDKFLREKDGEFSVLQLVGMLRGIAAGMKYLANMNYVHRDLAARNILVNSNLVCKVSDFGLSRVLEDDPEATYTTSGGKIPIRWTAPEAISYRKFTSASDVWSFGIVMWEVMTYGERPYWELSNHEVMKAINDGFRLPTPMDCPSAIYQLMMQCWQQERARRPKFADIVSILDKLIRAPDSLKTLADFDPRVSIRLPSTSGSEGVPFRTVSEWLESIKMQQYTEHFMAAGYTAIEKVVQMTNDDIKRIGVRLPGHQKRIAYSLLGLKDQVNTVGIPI
T2 sequence (Q03145 26-977): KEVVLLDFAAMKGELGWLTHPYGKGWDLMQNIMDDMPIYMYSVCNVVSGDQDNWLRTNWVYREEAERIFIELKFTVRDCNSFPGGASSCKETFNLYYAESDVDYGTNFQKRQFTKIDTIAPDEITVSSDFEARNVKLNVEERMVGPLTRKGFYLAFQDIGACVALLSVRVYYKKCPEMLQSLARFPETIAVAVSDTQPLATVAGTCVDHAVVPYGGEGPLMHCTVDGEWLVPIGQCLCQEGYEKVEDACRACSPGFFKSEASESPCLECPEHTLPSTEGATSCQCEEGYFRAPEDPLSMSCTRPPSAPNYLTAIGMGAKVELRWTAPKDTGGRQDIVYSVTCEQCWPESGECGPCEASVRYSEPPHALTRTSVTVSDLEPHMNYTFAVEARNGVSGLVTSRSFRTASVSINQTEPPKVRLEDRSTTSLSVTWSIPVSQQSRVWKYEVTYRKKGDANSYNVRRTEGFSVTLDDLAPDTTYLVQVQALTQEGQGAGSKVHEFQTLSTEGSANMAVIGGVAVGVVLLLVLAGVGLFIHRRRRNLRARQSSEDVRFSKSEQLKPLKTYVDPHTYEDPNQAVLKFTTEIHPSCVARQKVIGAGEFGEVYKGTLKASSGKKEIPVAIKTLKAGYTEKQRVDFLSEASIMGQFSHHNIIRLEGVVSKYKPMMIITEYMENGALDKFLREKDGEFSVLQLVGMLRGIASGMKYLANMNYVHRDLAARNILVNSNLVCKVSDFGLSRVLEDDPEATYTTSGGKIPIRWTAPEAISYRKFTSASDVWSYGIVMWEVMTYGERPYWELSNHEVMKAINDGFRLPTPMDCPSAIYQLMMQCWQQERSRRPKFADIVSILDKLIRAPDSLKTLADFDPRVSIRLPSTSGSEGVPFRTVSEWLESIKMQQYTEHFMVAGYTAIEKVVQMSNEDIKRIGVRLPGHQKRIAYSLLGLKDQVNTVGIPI

B1: 抗-EphA2抗体3F2 (antibody, V domains shown)
VH: EVQLVESGGGVVRPGGSLRLSCAASGFTVSDYSMNWVRQAPGKGLEWIGFIRNKANAYTTEYSASVKGRFTISRDDSKNTLYLQMNSLKTEDTAVYYCTTYPRYHAMDSWGQGTMVTVSS
VL: AIQLTQSPSSLSASVGDRVTITCRASQSISNNLHWYLQKPGQSPQLLIYYGFQSISGVPSRFSGSGSGTDFTLTISSLQPEDFATYYCQQANSWPLTFGGGTKLEIK
Regarding B1, the binding result in assay [1] and in assay [2] was “binds” each time.

B2: 抗-EphA2抗体1H3 (antibody, V domains shown)
VH: EVQLLESGGGLVQPGGSLRLSCAASGFTFSMYAMRWVRQAPGKGLEWVSVIGPSGGWTPYADSVKGRFTISRDNSKNTLYLQMNSLRAEDTAVYYCARDRGIYGMDVWGQGTTVTVSS
VL: DIQMTQSPSFLSASVGDRVTITCRASQGISSYLAWYQQKPGKAPKLLIYAASTLQSGVPSRFSGSGSGTEFTLTISSLQPEDFATYYCLELNNYPFTFGLGTKVHIK
In the case of B2, the binding result in assay [1] and in assay [2] was “binds” in each case.
